From the supplement of paper PMC5998384

What was measured:
HeLa Kyoto [1] = assay: thermal stability score vs G1/S (z-score of summed log2 fold changes over temperatures); higher = more thermally stable than in G1/S
HeLa Kyoto [2] = assay: solubility in G1/S (NP-40 vs SDS abundance) (log2 ratio); higher = more soluble; conditions: cell cycle stage: G1/S
HeLa Kyoto [3] = assay: solubility change mitosis vs G1/S (difference of NP-40 vs SDS log2 ratios) (log2 ratio difference); higher = more soluble in mitosis
HeLa Kyoto [4] = assay: melting temperature (median over replicates), in situ; higher = more thermally stable
[5] = cell cycle stage: early G1 (4.5 h after nocodazole release)
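For melting temperature (median over replicates), in situ in this document: HeLa Kyoto cells synchronized by double thymidine or nocodazole block, proteins quantified by TMT10plex mass spectrometry, three independent biological replicates.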
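For solubility change mitosis vs G1/S (difference of NP-40 vs SDS log2 ratios) in this document: synchronized HeLa Kyoto cells (double thymidine block for G1/S, nocodazole release for mitosis), protein amounts in NP-40 versus SDS lysates quantified by mass spectrometry, three biological replicates.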
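For solubility in G1/S (NP-40 vs SDS abundance) in this document: HeLa Kyoto cells arrested at G1/S by double thymidine block, proteins quantified by TMT10plex mass spectrometry in mild NP-40 versus SDS extracts, three biological replicates.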
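For thermal stability score vs G1/S (z-score of summed log2 fold changes over temperatures) in this document: synchronized HeLa Kyoto cells, proteins quantified by TMT10plex mass spectrometry, three biological replicates, mitosis taken 0.5 h after nocodazole release, G1/S directly after double thymidine block.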

Row | Sequence | thermal stability score (HeLa Kyoto [1]; [5]) | thermal stability score (HeLa Kyoto [1]; cell cycle stage: mitosis) | solubility in G1/S (log2) (HeLa Kyoto [2]) | solubility change mitosis (log2) (HeLa Kyoto [3]) | melting temperature (HeLa Kyoto [4]; cell cycle stage: G1/S) [°C] | melting temperature (HeLa Kyoto [4]; cell cycle stage: mitosis) [°C]
1 | MAGSVGLALCGQTLVVRGGSRFLATSIASSDDDSLFIYDCSAAEKKSQENKGEDAPLDQGSGAILASTFSKSGSYFALTDDSKRLILFRTKPWQCLSVRTVARRCTALTFIASEEKVLVADKSGDVYSFSVLEPHGCGRLELGHLSMLLDVAVSPDDRFILTADRDEKIRVSWAAAPHSIESFCLGHTEFVSRISVVPTQPGLLLSSSGDGTLRLWEYRSGRQLHCCHLASLQELVDPQAPQKFAASRIAFWCQENCVALLCDGTPVVYIFQLDARRQQLVYRQQLAFQHQVWDVAFEETQGLWVLQDCQEAPLVLYRPVGDQWQSVPESTVLKKVSGVLRGNWAMLEGSAGADASFSSLYKATFDNVTSYLKKKEERLQQQLEKKQRRRSPPPGPDGHAKKMRPGEATLSC [WDR4] | 0.0653 | -0.0979 | -0.256 | -0.396 | 52.8 | 53.9
2 | MDAALKRSRSEEPAEILPPARDEEEEEEEGMEQGLEEEEEVDPRIQGELEKLNQSTDDINRRETELEDARQKFRSVLVEATVKLDELVKKIGKAVEDSKPYWEARRVARQAQLEAQKATQDFQRATEVLRAAKETISLAEQRLLEDDKRQFDSAWQEMLNHATQRVMEAEQTKTRSELVHKETAARYNAAMGRMRQLEKKLKRAINKSKPYFELKAKYYVQLEQLKKTVDDLQAKLTLAKGEYKMALKNLEMISDEIHERRRSSAMGPRGCGVGAEGSSTSVEDLPGSKPEPDAISVASEAFEDDSCSNFVSEDDSETQSVSSFSSGPTSPSEMPDQFPAVVRPGSLDLPSPVSLSEFGMMFPVLGPRSECSGASSPECEVERGDRAEGAENKTSDKANNNRGLSSSSGSGGSSKSQSSTSPEGQALENRMKQLSLQCSKGRDGIIADIKMVQIG [SH3BP5] | -1.02 | -0.824 | 0.134 | -0.0509 | 53.2 | 52
3 | MPPPRTREGRDRRDHHRAPSEEEALEKWDWNCPETRRLLEDAFFREEDYIRQGSEECQKFWTFFERLQRFQNLKTSRKEEKDPGQPKHSIPALADLPRTYDPRYRINLSVLGPATRGSQGLGRHLPAERVAEFRRALLHYLDFGQKQAFGRLAKLQRERAALPIAQYGNRILQTLKEHQVVVVAGDTGCGKSTQVPQYLLAAGFSHVACTQPRRIACISLAKRVGFESLSQYGSQVGYQIRFESTRSAATKIVFLTVGLLLRQIQREPSLPQYEVLIVDEVHERHLHNDFLLGVLQRLLPTRPDLKVILMSATINISLFSSYFSNAPVVQVPGRLFPITVVYQPQEAEPTTSKSEKLDPRPFLRVLESIDHKYPPEERGDLLVFLSGMAEISAVLEAAQTYASHTQRWVVLPLHSALSVADQDKVFDVAPPGVRKCILSTNIAETSVTIDGIRFVVDSGKVKEMSYDPQAKLQRLQEFWISQASAEQRKGRAGRTGPGVCFRLYAESDYDAFAPYPVPEIRRVALDSLVLQMKSMSVGDPRTFPFIEPPPPASLETAILYLRDQGALDSSEALTPIGSLLAQLPVDVVIGKMLILGSMFSLVEPVLTIAAALSVQSPFTRSAQSSPECAAARRPLESDQGDPFTLFNVFNAWVQVKSERSRNSRKWCRRRGIEEHRLYEMANLRRQFKELLEDHGLLAGAQAAQVGDSYSRLQQRRERRALHQLKRQHEEGAGRRRKVLRLQEEQDGGSSDEDRAGPAPPGASDGVDIQDVKFKLRHDLAQLQAAASSAQDLSREQLALLKLVLGRGLYPQLAVPDAFNSSRKDSDQIFHTQAKQGAVLHPTCVFAGSPEVLHAQELEASNCDGSRDDKDKMSSKHQLLSFVSLLETNKPYLVNCVRIPALQSLLLFSRSLDTNGDCSRLVADGWLELQLADSESAIRLLAASLRLRARWESALDRQLAHQAQQQLEEEEEDTPVSPKEVATLSKELLQFTASKIPYSLRRLTGLEVQNMYVGPQTIPATPHLPGLFGSSTLSPHPTKGGYAVTDFLTYNCLTNDTDLYSDCLRTFWTCPHCGLHAPLTPLERIAHENTCPQAPQDGPPGAEEAALETLQKTSVLQRPYHCEACGKDFLFTPTEVLRHRKQHV [DHX34] | 0.188 | 0.311 | -0.242 | -0.0525 | 50.1 | 49.8
4 | MAAAALGQIWARKLLSVPWLLCGPRRYASSSFKAADLQLEMTQKPHKKPGPGEPLVFGKTFTDHMLMVEWNDKGWGQPRIQPFQNLTLHPASSSLHYSLQLFEGMKAFKGKDQQVRLFRPWLNMDRMLRSAMRLCLPSFDKLELLECIRRLIEVDKDWVPDAAGTSLYVRPVLIGNEPSLGVSQPTRALLFVILCPVGAYFPGGSVTPVSLLADPAFIRAWVGGVGNYKLGGNYGPTVLVQQEALKRGCEQVLWLYGPDHQLTEVGTMNIFVYWTHEDGVLELVTPPLNGVILPGVVRQSLLDMAQTWGEFRVVERTITMKQLLRALEEGRVREVFGSGTACQVCPVHRILYKDRNLHIPTMENGPELILRFQKELKEIQYGIRAHEWMFPV [BCAT2] | -0.771 | -0.0554 | -0.077 | -0.156 | 55.4 | 55.1
